According to patent publication US20120329854A1 (UNIVERSIT TSKLINIKUM FREIBURG, published 2012):

Key:
[1] = target: Protein-kinase-C-related kinase 1 (PRK1), endogenous in LNCaP cells (human, UniProt Q16512 2-942); experiment: Re-ChIP in LNCaP cells, first α-PKCβI then α-PRK1
Experimental: (§1) ChIP and Re-ChIP experiments were performed as described³. LNCaP cells were cultured for 15 min (ChIP) or 210 min (Re-ChIP) in the presence or absence of 1×10⁻⁸M R1881 as indicated. Three days before harvesting, cells were transfected with siRNA (control for PKCβI: 5′-[…]-3′(SEQ ID NO 3); PKCβI: 5′-[…]-3′ (SEQ ID NO 4) (FIG. 3 b, c, f-i); control for PRK1: 5′-[…]-3′ (SEQ ID NO 14); PRK1: 5′-[…]-3′ (SEQ ID NO: 15) (FIG. 3 d, e); Invitrogen) using RNAifect (Qiagen) following the manufacturer's instructions. Immunoprecipitation was performed with specific antibodies (α-AR #06-680 lot 33529 (Upstate Biotechnology), α-H3K4me1 #ab8895 lot 535654, α-H3T6ph #ab14102 lot 481643, α-H3 #ab1791 lot 172452, α-PKCβI S660ph #ab23513 lot 596904 (Abcam), α-PKCβI (C-16) #sc-209 lot 481643, (Santa Cruz), α-H3K4me2 #cs-035-100 lot A391001 (Diagenode), α-PRK1³, and α-LSD1²) on protein A-Sepharose 4B (GE-Healthcare). For PCR, 2 μl out of 50 μl DNA extract was used. PCR primers for FKBP5 (+351/+443), KLK2 (−343/−90), SCN1A, SCN2A, GAPDH, and U6 were described previously^{1, 2, 6, 11}.
It was recently shown by the inventors that PRK1 is a gatekeeper for regulation of AR target gene expression³. PRK1 controls multiple processes during AR-dependent transcription, such as transition from the RNA polymerase II pre-initiation to the initiation complex and demethylation at lysine 9 of histone H3 (H3K9)³. […]

[2] = target: LSD1, endogenous in LNCaP cells (human, UniProt O60341 1-852); experiment: Re-ChIP in LNCaP cells, first α-PKCβI then α-LSD1, KLK2 and FKBP5 promoters
Experimental: as §1
Therefore, it was investigated whether PKCβI is present at AR target genes and phosphorylates H3T6 in vivo. To analyse first whether PKCβI binds to promoters of AR target genes, LNCaP cells were subjected to chromatin immunoprecipitation (ChIP) in the presence or absence of the AR agonist R1881. […]

Protein-kinase-C-related kinase 1 (PRK1), endogenous in LNCaP cells, sequence (Q16512 2-942 limits assumed): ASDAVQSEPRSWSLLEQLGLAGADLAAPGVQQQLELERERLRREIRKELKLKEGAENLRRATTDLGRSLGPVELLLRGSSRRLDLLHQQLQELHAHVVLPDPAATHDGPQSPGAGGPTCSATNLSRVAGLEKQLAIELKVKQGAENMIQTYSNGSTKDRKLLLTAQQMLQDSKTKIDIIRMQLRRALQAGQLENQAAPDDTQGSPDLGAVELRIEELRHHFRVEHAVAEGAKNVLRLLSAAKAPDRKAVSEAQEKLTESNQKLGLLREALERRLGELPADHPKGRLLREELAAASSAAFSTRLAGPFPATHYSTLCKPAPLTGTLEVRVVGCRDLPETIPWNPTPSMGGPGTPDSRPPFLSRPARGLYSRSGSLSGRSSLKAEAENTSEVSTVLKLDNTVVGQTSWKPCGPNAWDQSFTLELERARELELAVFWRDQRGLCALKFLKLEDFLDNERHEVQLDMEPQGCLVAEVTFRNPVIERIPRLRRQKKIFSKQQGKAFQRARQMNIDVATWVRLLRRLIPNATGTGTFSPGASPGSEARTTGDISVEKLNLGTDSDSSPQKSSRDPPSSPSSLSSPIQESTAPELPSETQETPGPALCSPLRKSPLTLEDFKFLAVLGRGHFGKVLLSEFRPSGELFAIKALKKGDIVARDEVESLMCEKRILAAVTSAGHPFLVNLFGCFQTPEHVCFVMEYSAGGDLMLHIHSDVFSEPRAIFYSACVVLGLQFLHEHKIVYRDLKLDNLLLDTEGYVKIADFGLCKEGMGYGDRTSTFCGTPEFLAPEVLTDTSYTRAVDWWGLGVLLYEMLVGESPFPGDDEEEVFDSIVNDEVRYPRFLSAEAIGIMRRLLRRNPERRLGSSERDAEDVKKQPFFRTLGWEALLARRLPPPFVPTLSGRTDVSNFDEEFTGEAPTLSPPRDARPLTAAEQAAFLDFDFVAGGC

B1: protein kinase C beta 1 (PKCβI), endogenous in LNCaP cells (enzyme)
chain: not shown
notes: here the endogenous protein on chromatin of LNCaP human prostate cancer cells; also called protein kinase C βI; PKCβ1
B1: binds [1]; binds [2].
